Data taken from patent US20250320281A1.

Legend:
[1] = target: HIV-1 Env of isolate 93WR029 (subtype A) (HIV-1); test: cell-based or functional assay
[2] = target: HIV-1 envelope glycoprotein (Env) of isolate 92BR020 (HIV-1); test: cell-based or functional assay
[3] = target: JR-FL gp120 ΔV3 (HIV-1); test: ELISA, antigen-coated wells
[4] = target: HIV-1 APV13 envelope glycoprotein (Env) on pseudovirus (HIV-1); test: cell-based or functional assay
[5] = target: HIV-1 APV17 envelope glycoprotein (Env) on pseudovirus (HIV-1); test: cell-based or functional assay
[6] = target: HIV-1 Env of isolate 92BR020 (subtype B pseudovirus) (HIV-1); test: cell-based or functional assay
[7] = target: HIV-1 Env of isolate 93MW959 (HIV-1); test: cell-based or functional assay
[8] = target: HIV-1 Env of isolate JR-FL (subtype B pseudovirus) (HIV-1); test: cell-based or functional assay
[9] = target: HIV-1 Env of isolate MGRM-AG-008 (HIV-1); test: cell-based or functional assay
[10] = target: HIV-1 MGRM-A-010 envelope glycoprotein (Env) on pseudovirus (HIV-1); test: cell-based or functional assay
[11] = target: HIV-1 MGRM-AG-005 envelope glycoprotein (Env) on pseudovirus (HIV-1); test: cell-based or functional assay
[12] = target: HIV-1 MGRM-C-026 envelope glycoprotein (Env) on pseudovirus (HIV-1); test: cell-based or functional assay
[13] = target: HIV-1 MGRM-C-028 envelope glycoprotein (Env) on pseudovirus (HIV-1); test: cell-based or functional assay
[14] = target: HIV-1 92RW020 Env (HIV-1 92RW020); test: cell-based or functional assay
[15] = target: HIV-1 IAVI_C22 Env on pseudotyped virus (HIV-1 isolate IAVI_C22); test: cell-based or functional assay
[16] = target: HIV-1 SF162 Env on pseudotyped virus (HIV-1 isolate SF162); test: cell-based or functional assay
[17] = target: aMLV envelope on pseudotyped virus (negative control) (aMLV); test: cell-based or functional assay
[18] = target: HIV-1 Env of isolate 92UG046 (clade D), on pseudovirus (HIV-1); test: cell-based or functional assay
[19] = target: HIV-1 Env of isolate 92UG114 (clade D), on pseudovirus (HIV-1); test: cell-based or functional assay
[20] = target: HIV-1 Env of isolate APV6 (HIV-1); test: cell-based or functional assay
[21] = target: HIV-1 Env of isolate CAAN.A2 (HIV-1); test: cell-based or functional assay
[22] = target: HIV-1 Env of isolate MG RM-D-002 (clade D), on pseudovirus (HIV-1); test: cell-based or functional assay
[23] = target: HIV-1 Env of isolate MG RM-D-003 (clade D), on pseudovirus (HIV-1); test: cell-based or functional assay
[24] = target: HIV-1 Env of isolate MG RM-D-011 (clade D), on pseudovirus (HIV-1); test: cell-based or functional assay
[25] = target: HIV-1 Env of isolate MG RM-D-012 (clade D), on pseudovirus (HIV-1); test: cell-based or functional assay
[26] = target: HIV-1 Env of isolate MG RM-D-024 (clade D), on pseudovirus (HIV-1); test: cell-based or functional assay
[27] = target: HIV-1 Env of isolate MG RM-D-028 (clade D), on pseudovirus (HIV-1); test: cell-based or functional assay
[28] = target: HIV-1 Env of isolate MGRM-C-024 (clade C pseudovirus) (HIV-1); test: cell-based or functional assay
[29] = target: HIV-1 Env of isolate MGRM-C-025 (clade C pseudovirus) (HIV-1); test: cell-based or functional assay
[30] = target: HIV-1 Env of isolate MGRM-C-026 (clade C pseudovirus) (HIV-1); test: cell-based or functional assay
[31] = target: HIV-1 Env of isolate MGRM-C-028 (clade C pseudovirus) (HIV-1); test: cell-based or functional assay
[32] = target: HIV-1 Env of isolate MGRM-Chronic-B-018 (HIV-1); test: cell-based or functional assay
[33] = target: HIV-1 Env of isolate MGRM-Chronic-B-023 (HIV-1); test: cell-based or functional assay
[34] = target: HIV-1 Env of isolate MGRM-F1-006 (clade F), on pseudovirus (HIV-1); test: cell-based or functional assay
[35] = target: HIV-1 Env of isolate MGRM-F1-010 (clade F), on pseudovirus (HIV-1); test: cell-based or functional assay
[36] = target: HIV-1 Env of isolate MGRM-F1-012 (clade F), on pseudovirus (HIV-1); test: cell-based or functional assay
[37] = target: HIV-1 Env of isolate MGRM-F1-016 (clade F), on pseudovirus (HIV-1); test: cell-based or functional assay
[38] = target: HIV-1 Env of isolate MGRM-F1-018 (clade F pseudovirus) (HIV-1); test: cell-based or functional assay
[39] = target: HIV-1 Env of pseudovirus 92WR009 (subtype A) (HIV-1); test: cell-based or functional assay
[40] = target: HIV-1 Env of pseudovirus 92WR024 (subtype A) (HIV-1); test: cell-based or functional assay
[41] = target: HIV-1 Env of pseudovirus MGRM-A-007 (subtype A) (HIV-1); test: cell-based or functional assay

Chain of 1443_C16 (PG16) (TCN-116) (antibody) (VH): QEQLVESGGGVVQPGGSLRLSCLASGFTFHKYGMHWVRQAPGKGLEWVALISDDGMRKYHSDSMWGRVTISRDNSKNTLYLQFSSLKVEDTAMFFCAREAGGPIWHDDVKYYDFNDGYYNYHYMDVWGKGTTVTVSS
Chain of 1443_C16 (PG16) (TCN-116) (antibody) (VL): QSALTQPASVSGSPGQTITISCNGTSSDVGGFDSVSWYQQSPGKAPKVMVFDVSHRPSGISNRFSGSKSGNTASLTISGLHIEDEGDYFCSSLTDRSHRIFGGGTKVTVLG
Chain of 4995_E20 (PGT-142) (antibody) (VH): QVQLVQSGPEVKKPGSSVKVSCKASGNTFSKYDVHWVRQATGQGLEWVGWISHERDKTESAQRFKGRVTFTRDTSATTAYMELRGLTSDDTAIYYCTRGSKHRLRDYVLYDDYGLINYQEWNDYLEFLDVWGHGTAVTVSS
Chain of 4995_E20 (PGT-142) (antibody) (VL): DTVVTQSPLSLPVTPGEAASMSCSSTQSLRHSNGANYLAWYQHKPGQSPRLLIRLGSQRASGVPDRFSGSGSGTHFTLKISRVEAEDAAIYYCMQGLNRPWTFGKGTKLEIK
Chain of 4970_K22 (PGT-144) (antibody) (VH): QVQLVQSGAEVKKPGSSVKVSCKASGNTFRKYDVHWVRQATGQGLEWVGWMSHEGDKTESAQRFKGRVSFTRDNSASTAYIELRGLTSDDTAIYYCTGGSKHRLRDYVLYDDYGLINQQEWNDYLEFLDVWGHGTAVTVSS
Chain of 4970_K22 (PGT-144) (antibody) (VL): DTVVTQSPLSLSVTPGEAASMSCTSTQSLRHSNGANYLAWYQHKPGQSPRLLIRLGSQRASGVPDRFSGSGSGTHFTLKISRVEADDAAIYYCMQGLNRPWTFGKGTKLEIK
Chain of 5329_C19 (PGT-136) (antibody) (VH): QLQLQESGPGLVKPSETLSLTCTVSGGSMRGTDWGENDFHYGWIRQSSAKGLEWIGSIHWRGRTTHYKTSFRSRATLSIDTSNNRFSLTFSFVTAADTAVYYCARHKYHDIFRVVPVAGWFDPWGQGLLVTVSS
Chain of 5329_C19 (PGT-136) (antibody) (VL): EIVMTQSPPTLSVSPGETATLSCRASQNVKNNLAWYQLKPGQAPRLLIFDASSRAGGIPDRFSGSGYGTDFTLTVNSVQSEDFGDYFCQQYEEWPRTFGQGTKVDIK
Chain of 5345_I01 (PGT-137) (antibody) (VH): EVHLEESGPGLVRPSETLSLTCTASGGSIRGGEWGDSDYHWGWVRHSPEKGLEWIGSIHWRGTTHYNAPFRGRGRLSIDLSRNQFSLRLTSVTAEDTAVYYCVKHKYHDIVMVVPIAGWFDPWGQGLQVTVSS
Chain of 5345_I01 (PGT-137) (antibody) (VL): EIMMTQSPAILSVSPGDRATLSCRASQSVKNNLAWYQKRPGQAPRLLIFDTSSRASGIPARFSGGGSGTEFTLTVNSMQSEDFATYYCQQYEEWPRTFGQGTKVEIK

4970_K22 (PGT-144) (antibody)
IC50 (µg/mL), pseudovirus neutralization [1]: 4.39 µg/mL | IC50 (µg/mL), pseudovirus neutralization [2]: 44 µg/mL

5345_I01 (PGT-137) (antibody)
EC50 [3]: 0.1 µg/mL

VRC01 (antibody)
IC50 (µg/mL), pseudovirus neutralization [1]: 1.57 µg/mL | IC50 (µg/mL), pseudovirus neutralization [2]: 0.29 µg/mL

5114_A19 (PGT-128) (antibody)
EC50 [3]: 7.8 µg/mL

5141_B17 (PGT-126) (antibody)
IC50, pseudovirus neutralization [4]: 0.012 µg/mL | IC80 (pseudovirus neutralization) [4]: 0.0411 µg/mL | IC90 (pseudovirus neutralization) [4]: 0.084 µg/mL | IC95 (pseudovirus neutralization) [4]: 0.162 µg/mL | IC50, pseudovirus neutralization [5]: 0.501 µg/mL | IC80 (pseudovirus neutralization) [5]: 4.43 µg/mL | IC90 (pseudovirus neutralization) [5]: > 10 µg/mL | IC95 (pseudovirus neutralization) [5]: > 10 µg/mL | IC50 (µg/mL), pseudovirus neutralization [6]: 0.015 µg/mL | neutralization IC50 [7]: 9.44 µg/mL | IC50 (µg/mL), pseudovirus neutralization [8]: 0.014 µg/mL | IC50 [9]: > 50 µg/mL | IC50, pseudovirus neutralization [10]: 0.0033 µg/mL | IC80 (pseudovirus neutralization) [10]: 0.0137 µg/mL | IC90 (pseudovirus neutralization) [10]: 0.0316 µg/mL | IC95 (pseudovirus neutralization) [10]: 0.0687 µg/mL | IC50, pseudovirus neutralization [11]: 1.35 µg/mL | IC80 (pseudovirus neutralization) [11]: > 10 µg/mL | IC90 (pseudovirus neutralization) [11]: > 10 µg/mL | IC95 (pseudovirus neutralization) [11]: > 10 µg/mL | IC50, pseudovirus neutralization [12]: 0.0076 µg/mL | IC80 (pseudovirus neutralization) [12]: 0.0345 µg/mL | IC90 (pseudovirus neutralization) [12]: 0.0831 µg/mL | IC95 (pseudovirus neutralization) [12]: 0.185 µg/mL | IC50, pseudovirus neutralization [13]: 0.283 µg/mL | IC80 (pseudovirus neutralization) [13]: 2.62 µg/mL | IC90 (pseudovirus neutralization) [13]: > 10 µg/mL | IC95 (pseudovirus neutralization) [13]: > 10 µg/mL

5329_C19 (PGT-136) (antibody)
EC50 [3]: 0.1 µg/mL

1443_C16 (PG16) (TCN-116) (antibody)
IC50 (ug/ml), pseudovirus neutralization, TZM-bl assay [14]: 0.09 µg/mL | Neutralizing Antibody Assay: IC50; Virus/Ab Incubation 1 hour [15]: 0.114 µg/mL | Neutralizing Antibody Assay: IC50; Virus/Ab Incubation 18 hour [15]: 0.106 µg/mL | Neutralizing Antibody Assay: IC50; Virus/Ab Incubation 1 hour [16]: > 50 µg/mL | Neutralizing Antibody Assay: IC50; Virus/Ab Incubation 18 hour [16]: > 50 µg/mL | Neutralizing Antibody Assay: IC50; Virus/Ab Incubation 1 hour [17]: > 50 µg/mL | Neutralizing Antibody Assay: IC50; Virus/Ab Incubation 18 hour [17]: > 50 µg/mL

1495_C14 (PGC14) (antibody)
Neutralizing Antibody Assay: IC50; Virus/Ab Incubation 1 hour [15]: > 50 µg/mL | Neutralizing Antibody Assay: IC50; Virus/Ab Incubation 18 hour [15]: 13.4 µg/mL | Neutralizing Antibody Assay: IC50; Virus/Ab Incubation 1 hour [16]: 0.0069 µg/mL | Neutralizing Antibody Assay: IC50; Virus/Ab Incubation 18 hour [16]: < 0.0025 µg/mL | Neutralizing Antibody Assay: IC50; Virus/Ab Incubation 1 hour [17]: > 50 µg/mL | Neutralizing Antibody Assay: IC50; Virus/Ab Incubation 18 hour [17]: > 50 µg/mL

4995_E20 (PGT-142) (antibody)
IC50 (µg/mL), pseudovirus neutralization [1]: 0.014 µg/mL | IC50 (µg/mL), pseudovirus neutralization [2]: 15.1 µg/mL

PGV04 (antibody)
IC50 (µg/mL), pseudovirus neutralization [18]: 22.4 µg/mL | IC50 (µg/mL), pseudovirus neutralization [19]: 0.461 µg/mL | IC50 (µg/mL), pseudovirus neutralization [20]: 24.2 µg/mL | IC50 (µg/mL), pseudovirus neutralization [21]: 2.26 µg/mL | IC50 (µg/mL), pseudovirus neutralization [22]: 0.322 µg/mL | IC50 (µg/mL), pseudovirus neutralization [23]: > 50 µg/mL | IC50 (µg/mL), pseudovirus neutralization [24]: 0.025 µg/mL | IC50 (µg/mL), pseudovirus neutralization [25]: 0.125 µg/mL | IC50 (µg/mL), pseudovirus neutralization [26]: > 50 µg/mL | IC50 (µg/mL), pseudovirus neutralization [27]: 1.01 µg/mL | IC50 (µg/mL), pseudovirus neutralization [28]: > 50 µg/mL | IC50 (µg/mL), pseudovirus neutralization [29]: > 50 µg/mL | IC50 (µg/mL), pseudovirus neutralization [30]: 0.303 µg/mL | IC50 (µg/mL), pseudovirus neutralization [31]: 0.149 µg/mL | IC50 (µg/mL), pseudovirus neutralization [32]: 0.164 µg/mL | IC50 (µg/mL), pseudovirus neutralization [33]: 0.139 µg/mL | IC50 (µg/mL), pseudovirus neutralization [34]: > 50 µg/mL | IC50 (µg/mL), pseudovirus neutralization [35]: 0.184 µg/mL | IC50 (µg/mL), pseudovirus neutralization [36]: 0.25 µg/mL | IC50 (µg/mL), pseudovirus neutralization [37]: 0.268 µg/mL | IC50 (µg/mL), pseudovirus neutralization [38]: 0.027 µg/mL | IC50, pseudovirus neutralization [39]: 0.108 µg/mL | IC50, pseudovirus neutralization [40]: 0.31 µg/mL | IC50, pseudovirus neutralization [41]: 7.21 µg/mL
